Experimental data reported in US20030143735A1 (University of Pennsylvania, published 2003).

Biological target: T1, HIV-1 p55gag precursor polyprotein (HIV-1, UniProt P04591 1-500)
T1 construct: In vitro translated control protein
Test: coimmunoprecipitation of 35S-labeled in vitro translated proteins, SDS-PAGE

B1: human Vpr Interacting Protein (hVIP), 35S-labeled, in vitro translated (other)
chain: MHARAAASVMDICRIRLDHAVSMSTFFFFLSSGMEVDAAVVPSVMACGVTGSVSVALHPLVILNISDHWIRMRSHQGRPVQVIGALIGKQEGRNIEVMNSFELLSHTVEEKIIIDKEYYYTKEEQFKQVFKELEFLGWYTTGGPPDPSDIHVHKQCCEIIESPLFLKLNPMTKHTDLPVSVFESVIDIINGEATMLFAELTYTLATEEAERIGVDHVARMTATGSGENSTVAEHLIAQHSAIKMLHSRVKLILEYVKASEAGEVPFNHEILREAYALCHCLPVLSTDKFKTDFYDQCNDVGLMAYLGTITKTCNTMNQFVNKFNVLYDRQGIGRRMRGLFF
modifications: 35S radiolabel
notes: In vitro translated hVIP of the coimmunoprecipitation assay; Anti-Express antibody was among the antibodies used, so it may have
binding result: no binding
